Test results taken from publication PMC7800377.

Legend:
[1] = molecular target: SUN domain of human SUN1 (amino acid residues 616–812), tags removed (human); assay: SEC-MALS; SUN1-KASH4 after removal of bound zinc by treatment with EDTA
[2] = molecular target: SUN domain of human SUN1 (amino acid residues 616–812), tags removed (human); assay: SEC-MALS; co-expressed and co-purified samples at >1 mg/ml on Superdex 200 Increase 10/300 GL in 20 mM Tris pH 8.0, 150 mM KCl, 2 mM DTT
[3] = molecular target: SUN1 I673E (SUN domain of human SUN1, residues 616–812, I673E), GCN4 tag removed (human); assay: as above

stoichiometry N (binder:target ratio (6:6)) [1]	stoichiometry N (binder:target ratio (12:12)) [1]	stoichiometry N (binder:target ratio (6:6)) [2]	stoichiometry N (binder:target ratio (6:6)) [3]	Binder
1	1	1	1	ASGGPCCSHARIPRTPYLVLSYVNGLPPV (domain or fragment) [KASH domain of human Nesprin-4 (KASH4, amino acid residues 376–404), tags removed]
		1		GPSPPPTWPHLQLCYLQPPPV (domain or fragment) [KASH domain of human KASH5 (amino acid residues 542–562), tags removed]
